{"source": "paper PMC8699718", "about": "“A structurally conserved site in AUP1 binds the E2 enzyme UBE2G2 and is essential for ER-associated degradation” (PLoS Biology, 2021)", "molecules": {"B1": {"name": "UBE2G2: ERAD ubiquitin-conjugating enzyme (E2); purified in vitro, N-terminally MYC-tagged in cells (protein)", "chain": "MAGTALKRLMAEYKQLTLNPPEGIVAGPMNEENFFEWEALIMGPEDTCFEFGVFPAILSFPLDYPLSPPKMRFTCEMFHPNIYPDGRVCISILHAPGDDPMGYESSAERWSPVQSVEKILLSVVSMLAEPNDESGANVDASKMWRDDREQFYKIAKQIVQKSLGL"}}, "biological_target": "T1, gp78 RING (Homo sapiens, UniProt Q9UKV5)", "T1 construct": "The gp78-RING construct (aa 313 to 393) was generated by inserting a stop codon; GST (pGEX-4T-2 vector) (N); made in house", "T1 sequence (Q9UKV5 313-393, one chain of several)": "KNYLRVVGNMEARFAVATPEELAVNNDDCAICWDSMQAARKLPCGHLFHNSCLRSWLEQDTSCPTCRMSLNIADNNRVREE", "experiment": "NMR titration (1H-15N HSQC CSP) of 15N-UBE2G2 with or without G2BR with gp78 RING", "type": "binding", "conditions": "overall value; 15N-UBE2G2 150 μM, gp78 RING 0-450 μM, 50 mM Tris-Cl pH 7.0, 0.5 mM TCEP, 100 μM zinc sulfate, 0.05% sodium azide; G2BR 1:1.1 where present; read-out: affinity for gp78 RING (Kd) by NMR CSP", "protocol": "Fig 5 Titration of UBE2G2:G2BR with gp78 RING. Superposition of ^15N-^1H^N HSQC NMR spectra for apo-UBE2G2 and UBE2G2 bound to G2BR^AUP1 (A) or G2BR^gp78 (B). Spectra for UBE2G2 (150 μM) bound to G2BR were acquired at a 1:1.1 ratio. (C) Superposition of the spectra for apo-UBE2G2, UBE2G2:G2BR^AUP1, and UBE2G2:G2BR^gp78, illustrating the equivalence of perturbations between G2BR^AUP1 and G2BR^gp78. (D) Expansion of overlaid resonances corresponding to UBE2G2 residues showing fast exchange binding kinetics for gp78 RING binding to both UBE2G2:G2BR^AUP1 (left panels) and UBE2G2:G2BR^gp78 (right panels). Spectra were acquired at ratios of RING to UBE2G2:G2BR of 0, 0.33, 0.67, 1.0, 2.0, and 3.0. […]\nUBE2G2 and gp78 RING used in titration experiments were expressed and purified as previously described. […] The changes in chemical shift for each peak in the 2D spectrum upon gp78 RING binding was calculated using the following CSP equation: ΔCSP=(ΔδN/5)^2+(ΔδH)^2/2 (1)\nThe CSPs calculated from Eq 1 were plotted versus the molar ratio of gp78 RING to UBE2G2:G2BR, and the data were fit using the following equation to calculate the dissociation constant (Kd), where x is the ligand-to-protein ratio: ΔCSP=ΔCSPmax/2*1+x+Kd/P−(1+x+Kd)^2/P−4x (2)", "data": [{"molecule": "B1", "values": [{"measurement": "Kd", "result": "207 ± 6.4", "unit": "µM"}]}]}
